Assay: yeast display, Sf9 membrane polyspecificity reagent, FACS + sequencing; frameworks hold sequencing errors
How it was run: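 Genes from sorted yeast were amplified by colony PCR, read by MiSeq 2 × 250 sequencing and filtered on CDR length. These cells carried a synthetic nanobody library in Saccharomyces cerevisiae BJ5465 and were sorted by FACS into low and high (top ~1%) gates on anti-HA and streptavidin fluorescence. Polyreactivity is labelled according to the gate of origin.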

Question: For “QVQLVESGGGLVQAGGSLRLSCAASGFIFGVYPMGWYRQAPGKERELVAAISRSGGSTYYADSVKGRFTISRDSAKNTVYLQMNSLNPEDTAVYYCATHVSLYGKGYYYWGQGTQVTVSS”, which “polyreactivity (PSR sort gate)” value is on record?
Answer: high polyreactivity

Question: With “QVQLVESGGGLVQAGGSLRLSCAASGSSFAKYAMGWYRQAPGKERELVATISWSGTSTYYADSVKGRFTISRDNAKNTVYLQMNSLKPEDTAVYYCDADTECVGVNHIYDYWGQGNQVTVSS” as the sequence, how does the “polyreactivity (PSR sort gate)” value read?
Answer: low polyreactivity

Question: Which “polyreactivity (PSR sort gate)” value does the source give for “QVQLVESGGGLVQAGGSLRLSCAASGSIFTKYAMGWYRQAPGKERELVAAISASGGSTYYADSVKGRFTISRDNAKNTVYLQMNSLKPEDTAVYYCAARYWVREDYWGQGTQVTVSS” here?
Answer: high polyreactivity

Question: Which “polyreactivity (PSR sort gate)” value does the source give for “QVQLVESGGGLVQAGCSLRLSCAASGRIFVEYAMGWYRQAPGKVTELVAAINSGGSTNYADSVKGRFTISRDNAKNTVYLQMNSLKPEDTAVYYCNIDTLVYGYVQDYEYWGQGSQVTVSS” here?
Answer: low polyreactivity

Question: Which “polyreactivity (PSR sort gate)” value does the source give for “QVQLVESGGGLVQAGGSLRLSCAASGIIFRLNAMGWYRQAPGIERELVAAILRRGGSTYYADSVKGRFTISRDNAKNTVYLQMNSLKPEDTAVYYCAKDPHGSDFGYWGQGTQVTVSS” here?
Answer: low polyreactivity

Question: Which “polyreactivity (PSR sort gate)” value does the source give for “QVQLQESGGGLVQAGGSLPLSCAASGTISVHATMGWYRQATGKERELVAGITDGANTYYADSVKGRFTISRDNSQNTVYLQMNSLTPEDTAVYYCAAYYGTVVHFTYWGQGTQVTVSS” here?
Answer: low polyreactivity

Question: With “QVQLVESGGGLVQAGGSLSLSCAASVYIFLVYAMGWYRQAPGKERELVAAISSGGSTYYADSVKGRFTISRDNAKNTVYLQMNSLKPEDTAVYYCAKAGLALYAFRDDYWGQGTQVTVSS” as the sequence, how does the “polyreactivity (PSR sort gate)” value read?
Answer: low polyreactivity

Question: Which “polyreactivity (PSR sort gate)” value does the source give for “QVQLVESGGGLVQAGGSLRLSCAASGRIFVTNAMGWYRQAPGKERELVAAITRGGSTNYADSVKGRFTISRDNAKNTVYLQMNSLKPEDTAVYYCAAKRRYYGPWSRIGYDYWGQGTQVTVSS” here?
Answer: low polyreactivity

Question: Which “polyreactivity (PSR sort gate)” value does the source give for “QVQLVESGGGLVQAGGSLRLSCAASGRTLSVYAMGWYRQAPGKERELVAAITWRGGSTYYADSVKGRFTISRDNAKNTVYLQMNSLKPEDTAVYYCAAEDYTYNGGGYEYWGQGTQVTVSS” here?
Answer: low polyreactivity

Question: For “QVQLVESGGGLVQAGGSLRLSCAASGSTFPVYDMGWYRQAPGKERELVAAITAGVSTNYADSVKGRFTISRDNAKNTVYLQMNSQKPEDTAVYYCAKDFGLLPIRDDYWGQGTQETVSS”, which “polyreactivity (PSR sort gate)” value is on record?
Answer: low polyreactivity

Question: Which “polyreactivity (PSR sort gate)” value does the source give for “QVQLVESGGGLVQAGGSLRLSCAASGRTFFINTMGWYRQAPGKEREFVAAITWSAGRTYYADSVKGRFTISRDNAKNTVYLQMNSLKPEDTAVYYCAAALHGHTFPFYYWGQGTLVTVSS” here?
Answer: low polyreactivity

Question: With “QVQLVESGGGLVQAGGSLRLSCAASGRTFVRNTMGWYRQAPGKERELVAAISGGGSTYYADSVKGRFTISRDNAKNTVYLQMNSLKPEDTAVYYCAATTRRQGGKRFDYWGQGTQVTVSS” as the sequence, how does the “polyreactivity (PSR sort gate)” value read?
Answer: high polyreactivity

Question: With “QVQLVESGGGLVQAGGTLRLSCAASGRIFDGNTMGWDRQAPGKERELVAAIRSRGDRTYYADSVKGRFTISRDNAKNTVYLQMNSLKPEDTAVYYCAAQPSWYKPKGSWFEKGLYDYWGQGTQVTVSS” as the sequence, how does the “polyreactivity (PSR sort gate)” value read?
Answer: low polyreactivity

Question: With “QVQLVESGGGLVQAGGSLRLSCAASGSTFRWNAMGWYRQAPGKERELVAAITRSGGSTYYADSVKGRFTISRDNAKNTVYLQMNSLKPEDTAVYYCAAGYYTARRIRSDYWGQGTQVTVSS” as the sequence, how does the “polyreactivity (PSR sort gate)” value read?
Answer: high polyreactivity

Question: Which “polyreactivity (PSR sort gate)” value does the source give for “QVQLVESGGGLVQAGGSLRLSCAASGSTFGYYDMGWYRQAPGKERELVATITKSGGTTRYADSVKGRFTISRDNAKNTVYLQMNSLKPEDTAVYYCAADGTWRLLDDYWGQGTQVTVSS” here?
Answer: low polyreactivity

Question: Which “polyreactivity (PSR sort gate)” value does the source give for “QVQLVESGGGLVQAGGSLRLSCAASGSTFTRNAMGWYRQAPGKERELVAAITSSGGSTYYADSVKGRFTISRDNAKITVYLQMNSLKPEDTAVYYCAAYPHRPRDRELDHWGQGTQVTVSS” here?
Answer: low polyreactivity

Question: For “QVQLVESGGGLVQAGGSLRLSCAASGVNAMGWYRPAPGKEREFVAAITSIGGSTYYADSVKGRFTISRDNAKNTVYLQMNSLKPEDTAVYYCNTDRGPVKVSPLYVSWGQGTQVTLSS”, which “polyreactivity (PSR sort gate)” value is on record?
Answer: low polyreactivity

Question: Which “polyreactivity (PSR sort gate)” value does the source give for “QVQLVESGGGLVQAGGSLRLSCAASGSILYYYAMGWYRQAPVKERELVATITSGGTTNYADSVKGRFTISRDNAKNTVYLQMISLKPEDTAVYYCAADWAWDTKSAPAYPRAYDYWGPGTQVTVSS” here?
Answer: low polyreactivity

Question: Which “polyreactivity (PSR sort gate)” value does the source give for “PVQLQESGGGLVQAGGSLRLSCAASGNIFDADIMGWYRQAPGKERELVACIADGGSTNYADSVKGRFTISRDNAKNTVYLQMNSLKPEDTAVYYCAAIAYPYIPNCFDYDSDYFFRGQGTQVTVSS” here?
Answer: low polyreactivity

Question: With “QVQLVESGGGLVQAGGSLRLSCAASGFTFAKNAMGWYRPAPGKERELVATISRSGGSTYYADSVKGRFTISRDNAKNTVYLQMNSLKPEDTAVYDCAADRSYGVLGNEGGYWGQGTQVTVSS” as the sequence, how does the “polyreactivity (PSR sort gate)” value read?
Answer: high polyreactivity

Question: For “QVQLVESGGGLVQAGGSLRLICAASGFTFAGYAMGWYRQARGKDRELVAGIRSSGARTYYADSVKGRFTISRDNAKNTVYIQMNSLKPEDTAVYYCAKTDGFYRGYGYWGQGTQVTVSS”, which “polyreactivity (PSR sort gate)” value is on record?
Answer: low polyreactivity

Question: With “QVQLVESGGGLVQAGGSLRLSCAASGFTFRYYAMGWYRQAPGKERELVAGITWSGTNTYYADSVKGRFTISRDNAKNTVYLQMNSLKPEDTAVYYCITSPYLHYYYWGQGTQVTVSS” as the sequence, how does the “polyreactivity (PSR sort gate)” value read?
Answer: high polyreactivity

Question: With “QVQLVESGGGLVQAGGSLRLSCAASGRTFGFNVMGWYRQAPGKEREFVAAITRSGGSTYYADSVKGRFTISRDIAKNTVYLQMNSLKPEDTAVYSCAAYKFSARYYYWGQGTQVTVSS” as the sequence, how does the “polyreactivity (PSR sort gate)” value read?
Answer: high polyreactivity

Question: Which “polyreactivity (PSR sort gate)” value does the source give for “QVQLVESGGGLVQAGGSLRLSCAASGRTFRWYAMGWYRQAPGKERELVATITSGGSTNYADSVKGRFTISRDNAKNTVYLQMNSLKPEDTAVYYCAAWSYAYYYRLRYVSHDYWGQGTQVTVSS” here?
Answer: high polyreactivity

Question: Which “polyreactivity (PSR sort gate)” value does the source give for “QVQLVESGGGLVQAGGSLRLSCAASGSIFYIYAMGWYRQAPGKERELVATISHRGGSTYYADSVKGRFTISRDNAKNTVYLQMNSLKPEDTAVYYCAARSYYSWGRPLPSFNYWGQGTQVTVSS” here?
Answer: high polyreactivity

Question: With “QVQLVETGGGLVQAGGSLRLICAASASTFGYYAMGWYRQAPGKERELVAGIRYRGGSTSYADSVKGRFTISRDNAKNTVYLQLNSLKREDTAVYYCANGIYRGRTSSFRMGYWGQVTQVTVSS” as the sequence, how does the “polyreactivity (PSR sort gate)” value read?
Answer: low polyreactivity

Question: For “QDQLVESGGGLVQAGGSLRLSCAASGFTFAANAMGWSRQAPGKERELVAAISSDSTYADSVKGRFTISRDNAKNTVYLQLNSLKPEDTAVYYCAKDRYIVNSPGLDYWGQGTQVTVSS”, which “polyreactivity (PSR sort gate)” value is on record?
Answer: low polyreactivity

Question: Which “polyreactivity (PSR sort gate)” value does the source give for “QVHLVESGGGLVQAGGSLRLSCAASGRIFTYYAMGWYRQAPGKEREFVAAIRRSGGSTDYADSVKGRFTISRDNAKNTVYLQMNSLKPEDTAVYYCAAESPTYPGGEYWGQGTQVTVSS” here?
Answer: high polyreactivity

Question: With “QVQLVESGGGLVQAGGSLRLSCAASGFTLSRNAMGWYRQAPGKERELVAAISYSGARTYYADSVKGRFTISRDNAKNTVYLQMNRLKPEDTAVYYCAKVVPYPDYDYWGQGTQVTVSS” as the sequence, how does the “polyreactivity (PSR sort gate)” value read?
Answer: high polyreactivity

Question: For “QVQLVESGGGLVQAGGSLRLSCAASGTFAGNAIGWYRQAPGKERELVAAINSGGSTNYADSVKGRFTISRDNAKNTVYLQMNSLKPEDTAVYYCAADSVWSPVDYDYWGQGSQVTVSS”, which “polyreactivity (PSR sort gate)” value is on record?
Answer: low polyreactivity

Question: Which “polyreactivity (PSR sort gate)” value does the source give for “QVQLVESGGGLVQAGGSLRLSCAACGFTFTIYAMGWYRQAPGKERELVATISGRAGRTYYADSVKGRFTISRDNAKNTVYLQMNSLKPEDTAVYYCTAGQWRYPGLYYYWGQGTQVTVSS” here?
Answer: high polyreactivity

Question: For “QVQLVESGGGLVQAGGSLRLSCAASGFTFWYYAMGWYRQAPGKDRELVASISASGGRTNYADSVKGRFTISRDNAKNTVYLQMNSLKPDDTAVYYCNAASLIAAYGDYYWGQGTQVTVSS”, which “polyreactivity (PSR sort gate)” value is on record?
Answer: high polyreactivity

Source: the nanobody polyreactivity screen of Harvey et al. (2022)
